# Experiment: soluble on expression in E. coli; label from the status in PepcDB or PDB records
row,Sequence,soluble on expression in E. coli
1,MQAQQLPYEFFSEENAPKWRGLLVPALKKVQGQVHPTLESNDDALQYVEELILQLLNMLCQAQPRSASDVEERVQKSFPHPIDKWAIADAQSAIEKRKRRNPLSLPVEKIHPLLKEVLGYKIDHQVSVYIVAVLEYISADILKLVGNYVRNIRHYEITKQDIKVAMCADKVLMDMFHQDVEDINILSLTDEEPSTSGEQTYYDLVKAFMAEIRQYIRELNLIIKVFREPFVSNSKLFSANDVENIFSRIVDIHELSVKLLGHIEDTVEMTDEGSPHPLVGSCFEDLAEELAFDPYESYARDILRPGFHDRFLSQLSKPGAALYLQSIGEGFKEAVQYVLPRLLLAPVYHCLHYFELLKQLEEKSEDQEDKECLKQAITALLNVQSGMEKICSKSLAKRRLSESACRFYSQQMKGKQLAIKKMNEIQKNIDGWEGKDIGQCCNEFIMEGTLTRVGAKHERHIFLFDGLMICCKSNHGQPRLPGASNAEYRLKEKFFMRKVQINDKDDTNEYKHAFEIILKDENSVIFSAKSAEEKNNWMAALISLQYRSTLERMLDVTMLQEEKEEQMRLPSADVYRFAEPDSEENIIFEENMQPKAGIPIIKAGTVIKLIERLTYHMYADPNFVRTFLTTYRSFCKPQELLSLIIERFEIPEPEPTEADRIAIENGDQPLSAELKRFRKEYIQPVQLRVLNVCRHWVEHHFYDFERDAYLLQRMEEFIGTVRGKAMKKWVESITKIIQRKKIARDNGPGHNITFQSSPPTVEWHISRPGHIETFDLLTLHPIEIARQLTLLESDLYRAVQPSELVGSVWTKEDKEINSPNLLKMIRHTTNLTLWFEKCIVETENLEERVAVVSRIIEILQVFQELNNFNGVLEVVSAMNSSPVYRLDHTFEQIPSRQKKILEEAHELSEDHYKKYLAKLRSINPPCVPFFGIYLTNILKTEEGNPEVLKRHGKELINFSKRRKVAEITGEIQQYQNQPYCLRVESDIKRFFENLNPMGNSMEKEFTDYLFNKSLEIEPRNPKPLPRFPKKYSYPLKSPGVRPSNPRPGT,soluble
2,MQCYSIVGINYIQIYKAVTRNGIKHNIVVIKNSDYIFTITHYSPRTEYWTIVGNTDRQFYDANVLHNCLYIIGGMINNRHVYSVSRVDLKTKKWKTVTNMSSLKSEVSTCVNDGKLYVIGGLEFSISTGIAEYLKHGTSKWKRLPNLITPRYSGASVFVNDDIYVMGGVYTTMRNM,not soluble
3,MQEIIASVDHIKFDLEIAVEQQLGAQPLPFPGMDKSGAAVCEFFLKAACGKGGMCPFRHISGEKTVVCKHWLRGLCKKGDQCEFLHEYDMTKMPECYFYSKFGECSNKECPFLHIDPESKIKDCPWYDRGFCKHGPLCRHRHTRRVICVNYLVGFCPEGPSCKFMHPRFELPMGTTEQPPLPQQTQPPAKQRTPQVIGVMQSQNSSAGNRGPRPLEQVTCYKCGEKGHYANRCTKGHLAFLSGQ,soluble
4,MQEISFRDDILPLKDKLFRLALRITFDRAEAEDVVQDTMIRVWNKREEWTQFGSIEAYCLTVAKNLAIDRSQKKEAQNVELTPEMEEESEISGPYDQ,not soluble
5,MQEKQHIHIGEIIQRLSGRKLPQPLIRLLERLIHQDEINDILDRYGHLEGVDFMTALVGYFHVDIDWNGADRLPSDKRCLFVSNHPLGGLDGICLSHLIGSHYDSDVRYIVNDILFHLRPLRKIFVPVNTRGRQKRESIDRLQEALESDLPVITFPAGFCSRLIEGKVQDTPWKKSFVRQAYASKRDIVPLFFDGLNSKRFYRIERLRQLLGLKFNIGMALLPDEMFRSKGRHFRVFAGRPIPWQSLASAPRDTAEQALHIRSLVYDLSPSALKK,not soluble
6,MQEPQARIAALLRDADDILITTHANPDGDAIGSLGAMGHVLATLGKRFCLCNVSGVPSHLSWVPLPGQVYTSFDELPFQPRLAIVLDCGDEKRPGEALRAPLADLPSINIDHHQGNPLFGTVDNWVEPQRAATGEMVAEIALALGQPLAGALGECLYLALVSDTGSFSFGNTSARVLSLAAEIVGNGLDVAALTERHDNQWSFARMQLWGRLMQEMRLAFDGTVAISVIPDALIESCGARRADLEGWASQMRKVRGVRVSVMVRGNGPEGSKVSLRSTGSDDVRAVAARFGGGGHRNAAGVEMPLPPEEASRQVVAALGEQLGLDGDGASLYVLEHHHHHH,soluble
7,MQEVKQWPVKIMLVHPKAPFLKGEKIVIAADCAVLVNRDIRDRFESDAVIIGCPMLEDPRRMFERIKMIVAESDAKLEVYTMEVPCCHALHLMVEKAKEEHGKQTESEKYIVRVSGAVEPYSKKIDESMIEAERRAHRGH,not soluble

# — the DeepSol protein solubility set
